Source: article PMC10318062 (Nature Communications, 2023)

Key:
HCoV-OC43 S = HCoV-OC43 S (HCoV-OC43, strain ; reference …, UniProt P36334); test: AlphaScreen or HTRF; conditions: one partner purified
[1] = target: SARS-CoV-2 Receptor Binding Domain (RBD) (SARS-CoV-2, UniProt P0DTC2); test: AlphaScreen or HTRF; conditions: one partner purified

Sequence of HCoV-OC43 S (P36334 14-1353): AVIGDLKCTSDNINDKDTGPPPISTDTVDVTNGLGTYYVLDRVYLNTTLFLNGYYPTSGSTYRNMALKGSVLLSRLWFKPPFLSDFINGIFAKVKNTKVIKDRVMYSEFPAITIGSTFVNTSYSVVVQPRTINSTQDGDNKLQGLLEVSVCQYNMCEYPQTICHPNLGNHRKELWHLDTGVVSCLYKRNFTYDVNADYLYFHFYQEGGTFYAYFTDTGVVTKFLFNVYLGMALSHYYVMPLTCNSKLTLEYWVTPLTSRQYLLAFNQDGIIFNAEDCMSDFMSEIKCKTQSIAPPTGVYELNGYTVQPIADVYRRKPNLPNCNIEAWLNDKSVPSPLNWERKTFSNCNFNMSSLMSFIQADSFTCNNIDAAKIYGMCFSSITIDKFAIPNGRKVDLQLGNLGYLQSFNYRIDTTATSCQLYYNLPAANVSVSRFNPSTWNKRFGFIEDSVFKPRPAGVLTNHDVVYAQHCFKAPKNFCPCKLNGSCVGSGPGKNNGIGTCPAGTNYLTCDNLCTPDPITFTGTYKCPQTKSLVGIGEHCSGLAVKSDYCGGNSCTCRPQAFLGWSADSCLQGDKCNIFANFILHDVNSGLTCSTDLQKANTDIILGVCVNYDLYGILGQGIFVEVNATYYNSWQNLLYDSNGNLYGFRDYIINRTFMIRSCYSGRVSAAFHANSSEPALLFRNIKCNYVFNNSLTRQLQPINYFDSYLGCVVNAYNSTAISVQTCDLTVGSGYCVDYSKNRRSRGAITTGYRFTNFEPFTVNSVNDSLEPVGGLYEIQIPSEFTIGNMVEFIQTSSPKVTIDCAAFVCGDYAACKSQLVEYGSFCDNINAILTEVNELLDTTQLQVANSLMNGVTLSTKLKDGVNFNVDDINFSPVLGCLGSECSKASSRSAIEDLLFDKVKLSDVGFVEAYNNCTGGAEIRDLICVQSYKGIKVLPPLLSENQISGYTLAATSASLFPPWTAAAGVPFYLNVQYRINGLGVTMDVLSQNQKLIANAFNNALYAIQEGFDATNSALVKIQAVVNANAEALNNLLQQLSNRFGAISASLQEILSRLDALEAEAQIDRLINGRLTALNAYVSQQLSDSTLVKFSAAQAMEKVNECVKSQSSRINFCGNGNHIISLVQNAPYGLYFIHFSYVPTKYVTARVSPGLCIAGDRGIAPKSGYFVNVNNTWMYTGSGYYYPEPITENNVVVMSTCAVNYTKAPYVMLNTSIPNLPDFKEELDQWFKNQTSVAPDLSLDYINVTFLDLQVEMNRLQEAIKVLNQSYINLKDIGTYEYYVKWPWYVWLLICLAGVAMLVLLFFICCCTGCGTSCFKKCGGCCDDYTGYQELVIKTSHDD

Binder	binding result (HCoV-OC43 S)	binding result [1]
S2P6 (sdFab) (Fab, V domains shown) VH: EVQLVQSGAEVKKPGASVKVSCKASGYTFTSQYMHWVRQAPGQGLEWIGIINPSGVHTSYAQKFQGRVTLTRDTSTSTLYMELSSLRSEDTAVYYCARGSPKGAFDYWGQGTLVTVSS VL: not shown	binds	–
AZD8895 (sdFab) (Fab, V domains shown) VH: EVQLVQSGPEVKKPGTSVKVSCKASGFTFMSSAVQWVRQARGQRLEWIGWIVIGSGNTNYAQKFQERVTITRDMSTSTAYMELSSLRSEDTAVYYCAAPYCSSISCNDGFDIWGQGTMVTVSS VL: not shown	–	binds
REGN10987 (sdFab) (Fab, V domains shown) VH: QVQLVESGGGVVQPGRSLRLSCAASGFTFSNYAMYWVRQAPGKGLEWVAVISYDGSNKYYADSVKGRFTISRDNSKNTLYLQMNSLRTEDTAVYYCASGSDYGDYLLVYWGQGTLVTVSS VL: QSALTQPASVSGSPGQSITISCTGTSSDVGGYNYVSWYQQHPGKAPKLMIYDVSKRPSGVSNRFSGSKSGNTASLTISGLQSEDEADYYCNSLTSISTWVFGGGTKLTVL	–	binds
LY-CoV1404 (sdFab) (Fab, V domains shown) VH: QITLKESGPTLVKPTQTLTLTCTFSGFSLSISGVGVGWLRQPPGKALEWLALIYWDDDKRYSPSLKSRLTISKDTSKNQVVLKMTNIDPVDTATYYCAHHSISTIFDHWGQGTLVTVSS VL: QSALTQPASVSGSPGQSITISCTATSSDVGDYNYVSWYQQHPGKAPKLMIFEVSDRPSGISNRFSGSKSGNTASLTISGLQAEDEADYYCSSYTTSSAVFGGGTKLTVL	–	binds
REGN10933 (sdFab) (Fab, V domains shown) VH: QVQLVESGGGLVKPGGSLRLSCAASGFTFSDYYMSWIRQAPGKGLEWVSYITYSGSTIYYADSVKGRFTISRDNAKSSLYLQMNSLRAEDTAVYYCARDRGTTMVPFDYWGQGTLVTVSS VL: DIQMTQSPSSLSASVGDRVTITCQASQDITNYLNWYQQKPGKAPKLLIYAASNLETGVPSRFSGSGSGTDFTFTISGLQPEDIATYYCQQYDNLPLTFGGGTKVEIK	–	binds
